Assay results from patent US20020146411A1, “Anticoagulant agents useful in treatment of thrombosis” (SmithKline Beecham Corporation, priority 1996, published 2002).
Entries after “also recorded” stand apart in the source; their conditions may differ.

Assays:
Factor IXa = target: T1, Factor IXa (Homo sapiens, UniProt P00740); assay: Binding to Factor IXa (Table I)
T1 construct: as well as the active protease, Factor IXa

[1] = target: Factor IX to IXa conversion (Homo sapiens, UniProt P00740); assay: Inhibition of Factor IX to IXa conversion (Table I); assay type: biochemical
Sequence of Factor IX to IXa conversion (P00740 29-461 limits assumed): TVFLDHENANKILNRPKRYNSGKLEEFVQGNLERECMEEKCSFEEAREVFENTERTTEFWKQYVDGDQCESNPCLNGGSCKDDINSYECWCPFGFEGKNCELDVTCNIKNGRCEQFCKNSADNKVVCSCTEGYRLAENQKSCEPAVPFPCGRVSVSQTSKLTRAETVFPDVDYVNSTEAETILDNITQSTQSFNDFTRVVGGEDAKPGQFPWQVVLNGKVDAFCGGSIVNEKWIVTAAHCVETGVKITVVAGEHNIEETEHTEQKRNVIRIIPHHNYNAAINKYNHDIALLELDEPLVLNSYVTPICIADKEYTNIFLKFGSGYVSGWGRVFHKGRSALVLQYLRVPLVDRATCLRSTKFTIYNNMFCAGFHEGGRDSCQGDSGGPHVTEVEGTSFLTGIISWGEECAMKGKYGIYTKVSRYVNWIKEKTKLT

[2] = target: T2, Factor IXa in Xase complex (Homo sapiens, UniProt P00740); assay: Inhibition of IXa activity in Xase complex (Table I); assay type: biochemical
T2 construct: as well as the active protease, Factor IXa
T2 sequence (P00740 47-191 limits assumed): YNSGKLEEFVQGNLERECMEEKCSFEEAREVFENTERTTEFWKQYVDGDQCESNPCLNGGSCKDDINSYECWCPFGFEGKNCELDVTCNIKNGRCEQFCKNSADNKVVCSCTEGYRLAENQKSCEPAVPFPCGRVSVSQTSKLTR
T2 sequence (P00740 227-461 limits assumed): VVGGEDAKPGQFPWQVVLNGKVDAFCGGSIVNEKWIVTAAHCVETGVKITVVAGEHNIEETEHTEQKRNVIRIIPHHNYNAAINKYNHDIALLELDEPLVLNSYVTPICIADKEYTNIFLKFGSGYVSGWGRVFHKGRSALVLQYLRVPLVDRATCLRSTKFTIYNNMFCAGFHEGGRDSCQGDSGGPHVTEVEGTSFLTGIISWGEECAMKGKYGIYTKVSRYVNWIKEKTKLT

Factor IX [3] = target: T3, Factor IX (Homo sapiens, UniProt P00740); assay: Cofactor requirement for mAb activity (Table I)
Target sequence in this assay (P00740 29-461 limits assumed): as the sequence (P00740 29-461 limits assumed) above

[4] = tested on: Cynomologous monkey Factor IX; assay: Species cross-reactivity, monkey Factor IX; assay type: binding
rat Factor IX = rat Factor IX (Rattus norvegicus, UniProt P16296); assay: Species cross-reactivity, rat Factor IX; assay type: binding
Sequence of rat Factor IX (P16296 40-462): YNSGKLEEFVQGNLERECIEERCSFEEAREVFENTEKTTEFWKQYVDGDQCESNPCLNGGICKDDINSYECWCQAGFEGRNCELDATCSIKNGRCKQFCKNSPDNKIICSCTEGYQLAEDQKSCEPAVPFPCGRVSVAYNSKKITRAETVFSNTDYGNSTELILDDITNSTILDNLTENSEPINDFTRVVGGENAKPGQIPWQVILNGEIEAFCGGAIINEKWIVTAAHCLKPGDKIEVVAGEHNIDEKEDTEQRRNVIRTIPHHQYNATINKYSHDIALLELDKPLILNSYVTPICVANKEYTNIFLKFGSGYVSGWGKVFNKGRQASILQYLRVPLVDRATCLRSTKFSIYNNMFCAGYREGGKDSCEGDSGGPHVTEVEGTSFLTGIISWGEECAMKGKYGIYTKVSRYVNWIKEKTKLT

[5] = tested on: rat carotid artery thrombosis; assay: Rat carotid artery thrombosis model (FeCl3 injury), Example 3; assay type: in vivo
Text: In order to evaluate the efficacy of anti-Factor IX antibodies in prevention of arterial thrombosis, the rat carotid artery thrombosis model as reported by Schumacher et al. in J. Cardio. Pharm. 22, 526-533 (1993) was adapted. This model consists of segmental injury to the carotid endothelium by oxygen radicals generated by FeCl3 solution applied on the surface of the carotid artery.
In brief, rats were anesthetized with pentobarbitone sodium, the jugular vein cannulated for intravenous injections and the left femoral artery cannulated for blood pressure and heart rate monitoring. The carotid artery was isolated by aseptic technique via a surgical incision in the neck and equipped with a magnetic flow probe for blood flow measurement. After a period of stabilization, baseline parameters were established for the following variables: carotid blood flow, arterial pressure, heart rate, activated partial thromboplastin time (aPTT) and prothrombin time (PT). Thereafter, a premeasured Whatman filter paper soaked in 50% FeCl3 solution was placed on the carotid artery for 15 minutes for complete injury of the underlying endothelial cells. After removal of the FeCl3 soaked paper, the experiment was followed to completion over 60 minutes. At the end of the experiment, the carotid thrombus was extracted from the carotid artery and weighed.
All agents were administered 15 minutes prior to the onset of carotid injury. The following treatments were examined and compared to the Factor IX mAb BC2.
1. Heparin: 15, 30, 60 or 120 U/kg bolus, followed by infusion of 0.5, 1, 2 or 4 U/kg/min, respectively over 60 minutes
2. Acetylsalicylic acid (ASA, aspirin): 5 mg/kg bolus
3. Anti-Factor IX mAb BC2: 1, 3 or 6 mg/kg bolus, followed by infusion 0.3, 1, or 2 ug/kg/min, respectively over 60 minutes
4. Heparin: 30U/kg bolus+lU/kg/min+ASA at 5 mg/kg
5. Anti-Factor IX mAb BC2: 1 mg/kg+0.3 ug/kg/min+ASA at 5 mg/kg

[6] = target: T4, Recombinant human Factor IX (rhFIX) (Homo sapiens, UniProt P00740, T194A); assay: BIAcore kinetics of Factor IX binding to mAb on protein A surface; conditions: rhFIX 49 nM, 5 mM Ca2+, biosensor
T4 construct: purchased Genetics Institute
T4 sequence (P00740 47-461 T194A): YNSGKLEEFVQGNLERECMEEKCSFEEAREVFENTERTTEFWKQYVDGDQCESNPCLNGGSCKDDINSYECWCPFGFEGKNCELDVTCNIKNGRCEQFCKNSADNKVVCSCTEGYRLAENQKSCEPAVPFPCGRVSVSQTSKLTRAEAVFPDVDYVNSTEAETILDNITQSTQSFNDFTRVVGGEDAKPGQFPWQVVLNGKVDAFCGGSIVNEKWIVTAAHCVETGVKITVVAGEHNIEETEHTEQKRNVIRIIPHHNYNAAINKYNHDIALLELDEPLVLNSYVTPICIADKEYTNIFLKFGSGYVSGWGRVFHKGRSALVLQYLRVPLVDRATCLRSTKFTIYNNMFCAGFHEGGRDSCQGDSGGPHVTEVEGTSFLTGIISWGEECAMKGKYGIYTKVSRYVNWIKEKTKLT
Description: The kinetics of Factor IX binding to SB 249417 was assessed by BIAcore analysis with antibody bound to an immobilized protein A surface. Recombinant human Factor IX (rhFIX, Genetics Institute) at 49 nM was used and measurements performed in the presence of 5 mM Ca^2+. The interaction was characterized by rapid association, kass 2.0×10^5 M^−1 s^−1 and relatively slow off-rate, kdiss=4.1×10^−4 s^−1.

Factor IX gla domain = assay: Epitope mapping of BC2 with Factor IX/Factor VII chimeric constructs; assay type: binding
Description: A library of chimeric constructs composed of sequences of Factor IX spliced into the framework of the homologous protein Factor VII was constructed and used to map the epitope for the Factor IX BC2 mAb. See Cheung et al., Thromb. Res. 80, 419-427 (1995). Binding was measured using a BiaCore 2000 surface plasmon resonance device. The BC2 antibody was coupled directly to the chip using the NHS/EDC reaction. Binding was measured by 2 min of contact time at 20 uL/min with 200 nM of each of the given constructs in 25 mM MOPS, pH 7.4, 0.15 M NaCl, 5 mM CaCl2. Dissociation was monitored for 3 min using the same buffer with no protein. No binding was detected to the wild type construct in the presence of 50 mM EDTA.

Factor IX [7] = target: T3, Factor IX; assay: aPTT clotting time of human plasma, anti-Factor IX mAbs; assay type: biochemical; parameters: Human plasma samples were either freshly drawn and kept on ice or reconstituted; host or cells: human plasma
Description: The effect of increasing concentrations of anti-coagulation factor antibodies on activated partial thromboplastin time (aPTT) of human plasma was determined in a fibrometer (Becton-Dickinson Microbiology Systems, Cockeysville, Md.) using Baxter reference procedure LIB0293-J, 3/93 revision (Baxter Scientific, Edison, N.J.).
Prior to the start of the experiment, 2 to 3 mL of 0.02 M CaCl2 in a 5 mL tube were placed into the heating chamber of the fibrometer. Human plasma samples were either freshly drawn and kept on ice or reconstituted per the manufacturer's recommendation from Hemostasis Reference Plasma (American Diagnostics, Greenwich, Conn.).
Unfractionated heparin from porcine intestinal mucosa (Sigma Chemical, St. Louis, Mo.), low molecular weight heparin from porcine intestinal mucosa (Lovenox®, enoxaparin sodium, Rhone-Poulenc Rorer Pharmaceuticals, Collegeville, Pa.) or mAb anticoagulants were prepared as approximately 50 uM stock solutions and serially diluted directly into the test plasma. A blank containing plasma without anticoagulant was included as a reference.
Two fibroTube® fibrometer cups were filled with 100 ul test plasma or 100 ul test plasma with anticoagulant and 125 ul of actin activated cephaloplastin reagent (Actin reagent, from rabbit brain cephalin in ellagic acid, available from Baxter Scientific), respectively and placed in the fibrometer wells at 37° C.
After one minute, 100 ul of actin reagent was transferred to a plasma-containing cup and the contents mixed several times with a pipette. After a 3 minute incubation, 100 ul of CaCl2, prewarmed at 37° C., was added to the plasma-actin reagent mixture using a Automatic Pipette/Timer-trigger (Becton-Dickinson). The clotting times were noted and the results in FIG. 1 are presented as clotting times as a function of final concentrations of anticoagulant in the total assay volume of 300 ul. The nominal concentration of Factor IX in the assay is 30-40 nM.
Target sequence in this assay (P00740 47-461): as the sequence (P00740 47-461 T194A) above, with A148T counted along it

Factor IX [8] = target: T3, Factor IX; assay: Binding to Factor IX (in vitro properties, Table I); parameters: Human plasma samples were either freshly drawn and kept on ice or reconstituted; host or cells: human plasma
Description: Approximately two weeks later, 1.0 mL of hybridoma medium was removed from each well and tested for anti-Factor IX antibodies using an ELISA assay as described by Jenny, R. J. et al. in Meth. Enzymol. 222, 400-416 (1993). Briefly, factor IX was immmobilized onto plastic wells of 96-well microtiter plates. Hybridoma supernatants or dilutions of purified antibody were then incubated in the wells. The wells were washed and the presence of antibody-antigen complexes detected with a goat anti-murine immunoglobulin second antibody conjugated to horseradish peroxidase and the chromogenic substrate o-dianisidine.
Target sequence in this assay (P00740 47-461): as the sequence (P00740 47-461 T194A) above, with A148T counted along it

[9] = tested on: rat carotid artery thrombosis; assay: Rat carotid artery thrombosis model, humanized mAbs, Example 8; assay type: in vivo; conditions: 3.0 mg/kg i.v. bolus, 60 minutes after onset of injury
Description: In order to evaluate the efficacy of humanized anti-Factor IX antibodies in prevention of arterial thrombosis, the rat carotid artery thrombosis model as described above in Example 3 was used. Baseline parameters were established for carotid blood flow, arterial pressure, heart rate, vessel patency and activated partial thromboplastin time (aPTT). Fifteen minutes thereafter, carotid injury was effected for […]. The parameters were determined 60 minutes after onset of carotid injury. Carotid thrombus was also extracted from the carotid artery and weighed.
All agents were administered intravenously 15 minutes before the onset of carotid injury. The following treatments were examined and compared to the anti-Factor IX mAb BC2.

rhFIX = target: T5, rhFIX (Homo sapiens, UniProt P00740, T194A); assay: Titration microcalorimetry of rhFIX binding
T5 construct: purchased Genetics Institute
T5 sequence (P00740 47-461 T194A): as the sequence (P00740 47-461 T194A) above
Description: The interactions between rhFIX and SB 249417 BC2 and other humanized constructs were characterized by titration microcalorimetry, which measures binding interactions in solution from the intrinsic heat of binding. Nine injections of 106 uM FIX were made into the calorimeter containing 2 uM mAb SB 249417. Binding was detected in the first 4 injections as exothermic heats. At the last 5 injections the mAb binding sites were saturated with FIX and only background heats of mixing were observed. […] Nonlinear least squares analysis of the data yield the binding affinity.
The data in Table 3 indicate that the affinities of SB 249417, BC2 and its other humanized constructs are within error (a factor of 2) the same.

T1 sequence (P00740 47-191 limits assumed): as the sequence (P00740 47-191 limits assumed) above
T1 sequence (P00740 227-461 limits assumed): as the sequence (P00740 227-461 limits assumed) above

B1: BC2: murine monoclonal antibody directed against human Factor IX and/or Factor IXa, isotype IgG2a (antibody, V domains shown)
VH: QIQLVQSGPELKKPGETVKISCKASGYTFTNYGMNWVKQAPGKGLKWMGWINTRNGKSTYVDDFKGRFAFSLESSASTANLQIDNLKDEDTATYFCTREGNMDGYFPFTYWGQGTLVTVSA
VL: QIVLSQSPAILSASPGEKVTMTCRASSSVNYMHWYQQKPGSSPKPWIYATSNLASGVPARFSGSGSGTSYSLTISRVEAEDAATYYCQQWSINPRTFGGGTKLEIKR
In the case of B1, the “Binds Factor IXa” value (Factor IXa) is reported as “binds Factor IXa and yes”, the “Inhibits IX to IXa conversion” value [1] is reported as “yes” and the “Inhibits IXa activity in Xase complex” value [2] is reported as “inhibits Factor IXa activity and yes”. The Cofactor requirement (Factor IX [3]) was “Divalent metal cofactors are required for activity; also recorded: Ca^2+ > Mn^2+”, the “Species cross-reactivity: monkey Factor IX” value [4] was “cross-react” and the “Species cross-reactivity: rat Factor IX” value (rat Factor IX) was “cross-reacted; also recorded: species cross-reactivity with rat”. The “effect on prothrombin time (PT) at 60 minutes (FIG. 5)” value [5] was “not by any of the Factor IX mAb doses”, the “effect on thrombus weight (FIG. 7)” value [5] was “dose-dependently reduced” and the “effect on carotid artery occlusion” value ([5]; Factor IX mAb at the two higher doses (3, 6 mg/kg bolus + infusion)) was “completely blocked”. The “effect on thrombus formation” value ([5]; high dose of Factor IX mAb) was “virtually prevented completely”, the “increase in clotting time (aPTT)” value ([5]; highest dose of Factor IX mAb (6 mg/kg bolus + 2 ug/kg/min)) was ≤ 3 fold and the “effect on carotid artery occlusion (patency)” value ([5]; lower dose of Factor IX mAb alone (1 mg/kg + 0.3 ug/kg/min)) was “largely failed to secure patency”. For the same molecule, the “effect on aPTT at 60 minutes (FIG. 4)” value ([5]; regimens of b146-b150, given 15 minutes before injury) was “modest effect”, the kass [6] was 480000 M⁻¹ s⁻¹ and the kdiss [6] was 0.00091 s⁻¹. For the same molecule, the epitope (Factor IX gla domain) was “residues 3-11 of the Factor IX gla domain”, the [formula] (row head is a formula not shown) (Factor IX [7]; Table I, the values are: max aPTT as % of normal aPTT) was 350% and the “aPTT at saturating concentrations of mAb” value (Factor IX [7]; normal human plasma, FIG. 1) was “about 90 sec”. The “increase of the aPTT at saturating concentrations” value (Factor IX [7]; normal human plasma, FIG. 1) was 3.5 fold, the “maximal value of clot time in the aPTT assay” value (Factor IX [7]; self-limiting effect, summary description) was “about 100 seconds” and the “Binds Factor IX” value (Factor IX [8]) was “yes”.

B2: SB 249417: humanized anti-Factor IX mAb, heavy chain F9HZHC 1-1 (SEQ ID NO: 52), light chain F9HZLC 2-0 (SEQ ID NO: 74) (antibody, V domains shown)
VH: QVQLVQSGSELKKPGASVKVSCKASGYTFTNYGMNWVRQAPGQGLKWMGWINTRNGKSTYVDDFKGRFVFSLDSSVSTAYLQISSLKADDTAVYYCTREGNMDGYFPFTYWGQGTLVTVSS
VL: QIVLTQSPSSLSASVGDRVTITCRASSSVNYMHWYQQKPGKAPKPWIYATSNLASGVPSRFSGSGSGTDYTFTISSLQPEDIATYYCQQWSINPRTFGQGTKVEIKR
In the case of B2, the “effect on aPTT (FIG. 8)” value [9] is reported as “modest effect” and the “Stoichiometry of Factor IX Binding, Isothermal Titration Calorimetry” value (rhFIX) is reported as 1.5 moles Factor IX: 1 mole mAb.
